Data on one molecule can be found in patent publication US20210071139A1 (published 2021).

This assay has as its target histone H4 (UniProt P62806 2-103). Put plainly: IP with anti-TOX from EL4 lysate, Western blot (FIG. 60L). Background: A western blot detects proteins with antibodies after separation by electrophoresis.

B1: TOX (other)
chain: MDVRFYPPPAQPAAAPAAPCLGPSPCLDPYYCNKFDGENMYMSMTEPSQDYVPASQSYPGPSLESEDFNIPPITPPSLPDHSLVHLNEVESGYHSLCHPMNHNGLLPFHPQTMDLPEITVSNMLGQDGALLSNSISVMQEIGNAEGAQYSSHPQMAAMRPRGQPTDIRQQASMMQPGQLTTINQSQLSAQLGLNMGGTNVAHNSPSPPGSKSATPSPSSSVHEDECEDASKINGGEKRPASDMGKKPKTPKKKKKKDPNEPQKPVSAYALFFRDTQAAIKGQNPNATFGEVSKIVASMWDGLGEEQKQVYKKKTEAAKKEYLKQLAAYRASLVSKSYTDPVDVKTSQPPQLVNSKPSVFHGPSQAHSALYLSSHYHQQPGMTPQLTAMHPSLPRNIAPKPNNQMPVTVSIANMAVSPPPPLQISPPLHQHLSMQQHQSLAMQQPLGSQLPMQVQTALHSPTMQQGFTLQPDYQTIINPTSTAAQVVTQAMEYVRSGCRNPPPQPVDWSTDYCSSGGMQRDKALYLT
notes: Bait of the immunoprecipitations (anti-TOX ab155768, Abcam); also called TOX protein
Regarding B1, the binding result is reported as “binds”.
